Reference: the domain aggregation screens of Martell et al. (2025)

Test: soluble fraction after stress (log2 fold change); higher = more stays soluble; pooled small domains, quantitative proteomics
Conditions: stress: pH 4
Outline: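 How much of each domain stays soluble after acid stress, expressed as a fold change, is used to gauge aggregation propensity. Pooled custom libraries of small domains underwent pH 4 stress before high-throughput quantitative proteomics. A higher log2 value means more of the domain stayed soluble.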

Row | Sequence | soluble fraction (log2)
1 | HMGLNEGLNEGQQKVIQHIQENEGIKVKEISLKLNMPIDTVDRHIRVLKNLNLIERRGSRKTGGYFISN | 0.111
2 | HMGLNELQVKLNEAMQRLSLKHRTVVVMHDIEGIPHDEIAKIVGVSVGTIRSRLFYARRQLQADLGEY | -0.896
3 | HMGLNNVSDILRLDFNSFKKKFDKLPSGYKNSVVEQAALMIKSGELDSIKIKDYIEKSMGIELDI | -0.0393
4 | HMGLQDLFLNSLRKSKTPVTMFLVKGVKLQGVVTWFDNFSVLLRRDGMSQLVYKHSISTIMP | 0.22
5 | HMGLSARIAQRIHGLRTAQRMSLEALAARSGVSRSMISLIERNEASPTAVVLEKIATGLNVVLAALFDTP | -0.324
6 | HMGLSNYEFNSISQTVKEKLEQGPLTLKALVDETAHLFAEDKVVSVVQWLIDQRDLAYDDHGLLQWKG | -0.871
7 | HMGLTLREKMGHVLEMLKGREFLPFVSLFTVEEGRIGVVVTFMSILELVKEGILDLVQTESFGPIHVKAR | 0.0455
8 | HMGMAETTARILQLLGLLQSRRGWSGQELAERLGVTTRSVRRDVERLRELGYPVHASAGHGGGYQLGA | -0.106
9 | HMGMGDALRILFNQAMLIEREQYLQAGAYERNENPVNYANGFKAKTLNTRVGALEVAVPQTRDSAFYPSFL | -0.163
10 | HMGMLATFVTSAKVPDDVVYAITKEVFENLDEFKKLHPALEGLTRETMLEGLTAPIHPGALKYYKEAGLM | -1.32
11 | HMGMSQQKQSSTVRIIMQDISDANEGLMKMSQIIDAALAEGISETIVRNAISNLHRGGTIYESQTGTYQW | -0.392
12 | HMGMTDEELNREEERVVAELEAKDEEELTIYNEEDLTFEETLDLPEGSLMRDRENGMIYLKVLDIWMPY | -0.831
13 | HMGMTNRIKELRKAKGYRQEDLAAALGVSRQTIIAVENNKYNPTLELAMKLARHLQTTVEELFQL | -0.885
14 | HMGMVEFEIGERDHSEDVSRKLFEAGLIEDASDFNQYMIEKKMDDHLQTGKYQIPKGATKDEILELIVR | -0.674
15 | HMGMYAEERHQAIASLARKHGRVSVAELAERFNVTSETIRRDLDSLARRGLLTRVHGGAVPVE | ≥ 0.43
16 | HMGMYFTEMRKNEGLIALNGVAESNKRVSDLMDNLKDSSSFDAADIKAVKSGSGDASSLMDFELLVT | -0.452
17 | HMGNASQAARRQRIVDAALELLQDRPYDQIQMRDVAEGAGVALGTLYRYFPSKEQLFAHVLVE | -0.701
18 | HMGNEMQVPNVAGKTVDEAIEIFNNMGLKVAAENKYAQSDDVKEGDVVKTDPSSGRNVKKGSEITLYISQG | 0.291
19 | HMGNEVMYRQDLSEQELLSFIKKYTGQDEVTHIVVGAPKQRDNTPSPVETKITPFVVQLKAQFPDVNVV | -0.217
20 | HMGNFNDMLKYLRVREKMSQAELADKLGVSKSTVGMYELGKREPDFETLEAIADLFNVDMNFLLGK | -0.439
21 | HMGNHMSFKMWGEQLQEAFRALETYDTQKAKTILNELVRFPIDSDITKALKGIISNIDDMMA | -0.721
22 | HMGNLPPAVINARIKVSPAGRGVFVGFDKGSTSTEAKYADAIRGYLPNIEFNKDDHESVVTVPFNFR | -0.0258
23 | HMGNTLAYSEFRQKVQEGAVKQVVLSEDRVTGELTNGDRFTANIVRDPELLKMLNDNNVKYDGKPT | -0.0484
24 | HMGNVGEAIEALVKGFQEGNQFQTLLGVTGSGKTFTMANVIAALNKPTLIISHNKTLAAQLYLSLIHIS | -0.255
25 | HMGNYRVIKWGMQGDDVKLMQQMLINRGYVLSATGKYASRTLKAIMAFQEANGLKADGIVGKRTWNKLL | -0.134

Row | Sequence | soluble fraction (log2)
26 | HMGPAYEKIVANGQTFYRYNVKKGEGLMAVSRTFNVSVNDILKYNPSAASGLKDGQELLIPVIDDA | -0.29
27 | HMGPESKLTDAIKDYIYALYENLKGKSKFRNTIIEEVKKLYGVDISRESIRRVVNQKTDAETTENDDDEKA | 0.197
28 | HMGPKALLKIPGLQEVDAELLFKEGYKSISAVASADPEMLKAIPGVDEQKVTEWVTGAEQILSQQVNKGA | 0.25
29 | HMGPKPVDMSPIPEGQRNQVLHDWMYGRAANHPENWGQIRSDALERGLKSGLKADEIHAITGSVARALGLE | 0.0794
30 | HMGPNPLTEREQEILQLARTGEPVARLAKRLFLSPGTVRNHLSSAIGKLGAANRVEAAQFATERGW | -0.0238
31 | HMGPSLDAVREQIRDLIAEEDKSAPYSDLSLVAELEKRGIHISRRTIAKYRGEMGIPNSDQRRYF | 0.325
32 | HMGPSSIVVYVSGAVKTPGVYTLAPGSRVDDAVRAAGGLSERAESAGTNLAAQLSDGEHVHVAAAGE | -0.159
33 | HMGPTGGLTPHIAIADKRASEAIEFYKQAFGAVEQVRMPAEDGVRLMHAHLLVNGSSLMMHDDFPEYSGQ | 0.0087
34 | HMGPTLSPAEKRVFEVIPYDAILQDMVIRAAELPPGEVLAALTTLELKGLIKRLPGNLVMRRAR | -0.267
35 | HMGPVALGVTDGATYFSSVTITFRRGTAVLDGEPIASGHTVYKSGAHSLTLTAGGKTRTIAFTMDT | 0.139
36 | HMGPVPLASAADMEKFYSHLQQVLDEVDFKDRTGSGHLMARLRRLFQRTVLDQNEINILRGILMAVQGRR | -0.959
37 | HMGQGAASAPLRELGVDPVSEKQMVLKDGRFGPYVTDGETNASLRKGDEVETITDERASELLQMRRDAGPS | 0.0347
38 | HMGQISDDGALKKLASEVLAANPQALADWKAGKQQAVSFLVGQAMKASKGRGDAALLGELIRAALD | 0.0477
39 | HMGQKASEVEKIFVELQQQIIRGDLPPGYRLVESQIAAQFGVSRTPARLAIERLATAGLVAHETNRGATVH | -0.36
40 | HMGQKNEDESLAKFYVHKKGNQYGPYSLIQIREYLKNNSFSLDDLASWDGQSWKKISQIPNLN | 0.182
41 | HMGQLTDKQILLFSGKLAYEPTFASKYSKAGESYDDFIIRISGDLTDPKKIKEYSPYLKELGF | -0.954
42 | HMGQNYTIVKGDSLWKIAQKQYGDGSQWKKIYDANKDAIESAAKKYGKKSSDSGKWIYPGVSLII | 0.134
43 | HMGQVEVPDVVGMTQERAITTLTEAKLVAQIQLTPADVAKGLVAAQSPRAGLKIGEGSFVTIEVSTGPVI | 0.229
44 | HMGQVFEGTFNRKANGKNSVTPAEGGEPVFIAERNSLHAMNGDLVKVSLLAKKKHQPREAQVIEILKRSD | 0.338
45 | HMGQVPPLTRRETEIARLVSRGLSNKEIASTLVISPRTAEGHVEHILDKLGFSSRTQIATWLNEQTRNGK | 0.313
46 | HMGRDWKTDLLNLATARGWGDVSYEVTGEGPDHARVYTAVAIVANQKTGTGVGPSKKEAERLAAEQAYRML | 0.132
47 | HMGRELSDLELSLLRILDDKIPLLIDEAADRLQLPVAQVLSAVTIMEIDGLIRREGMRKYLRTVEVEETK | -1.3
48 | HMGRFAETVEHIVAAQLARRQGIPTMEQFASFFNVSRATFQRRLGEEGETLEQIKQRVRLRLALELLHP | -0.441
49 | HMGRGAAKGPLKELGLDPVTGRPLVVKDGKFGMYVTDGETNAGLRRGDLVEQLTLDRGMELLAERRARADQ | -0.258
50 | HMGRKIDDPSSMTGAEKAAVILLALGDEQRQLWEMMDDEEIRVVSQAMVNLGNVTSGAVEKLIMEFVGSMS | -0.425

Row | Sequence | soluble fraction (log2)
51 | HMGRKPATTIPLQVRNAVLDLYRTKYYGANFQHYTELLHEHEGIRISTSSVAKILEAEYILSPK | -0.838
52 | HMGRKPVSPEIVERVLQLAKSNPDWGYEHIAGTMRYLGYNVSATTIRHILEANGIVPDPERRL | -0.543
53 | HMGRMSLDEAKAVILPIGEHKGHTMGEVLAIKPGLIDFYASQKFNSGKYPYLKEAAQVILENQG | 0.173
54 | HMGRRERKKLQSRRAIIEAAVTEFKEKGFREASVADIMTRADLGLGTFYNYFQSKEDILMSLLS | -0.0713
55 | HMGRRRAAPQEPLRQFPASPVTGQPIKLLLGQYGPYVTDGTTNASLPKGSSPDELTFEQATQLLAERALRG | 0.0322
56 | HMGRSARVQQAVHQAVRALLEENDGERSALSVPLVAERAGVNSSTIYRRWGDLPRLLAAVASN | 0.0284
57 | HMGRTVKGVNFVGLRDAGDPVDLAEIYSKEGADELVFLDITATHEKRKTLLDLVTRVAERINIPFTVGGGI | -0.331
58 | HMGSALLEAGADDAGQRLDQWLAAKLGPSISRSRVQALIKQGAVLVGGKPAGEAKRKLVAGDVVSVALPEP | 0.133
59 | HMGSDLVAWAQTRIGRHPEEAADVIAALIDRHGEARVRAASRSLLARKFAHASDLRTAIDAAIG | 0.0531
60 | HMGSEEMLGALGVVERATDDGDWWIAVHGEHWRARSAQALVPGDRVRVARIDGLTLTVTPIA | 0.0708
61 | HMGSEGVKVEDTIGMSEAEATATLGKSGFVVNKTESHDPYIKAGNVITQSPAAGSKAPKGTTVTLTISLGP | 0.423
62 | HMGSEISYSEFLNRVEQGQVAAVRLDGEQIFITGPTGEAYQTIQPRNTDVLPDLREAGVEIQAAPQ | -0.675
63 | HMGSEYPSNPLASRWAKGVRLYHDEWGYGVIQAARGSEPDDYVITVRFESGAEKSFLPKFQAHSLMIVKD | -0.974
64 | HMGSGQVTLPDLEGKSMKEVARILSQLGLHLSPDGHGLAFKQSPAAGTRVPVGSTIKVSFQPL | -0.208
65 | HMGSKKAIPYVSGMSETEAQNELEEAGFKVTSSFQYDDSVESGKVISTTPEAGTKAEKGSTVTMLVSQGSN | 0.0696
66 | HMGSLVQTAMQAVTKHIHDNAMRVGDTLPGEGHFAETLGVSRAVMREAFGALAALKLIDVGNGRKPRVGR | 0.091
67 | HMGSNATIKYAIKGDESLVQVAQKFNVTVSELRSWNNISAFENAKTGQELVINVPASKYETYFALANT | -0.0194
68 | HMGSNLSFDLSQIIASRYQEKAAELGLTAPSLARTDLSPQEQATAEVVARAIIADYYDQRVAPFNDLIPQ | -1.54
69 | HMGSNRPLALGDVVRIEGSKTLGTILELNAKDAVVALGALKTTLPLSRIHHASSQESQRLKRQATQAPLR | 0.0932
70 | HMGSPKLVIKNGQVDYQVLKKEKLDLLELTSLLRGQNTFSIREIEYAIIEPNGVITVIKKPEYQSVVKGDL | -1
71 | HMGSPVTAVMNRVLNETERQIVTLHVISGFKHREIAELLEKPVGTVLWTYNNALGKMRKAMQRE | -0.603
72 | HMGSRRFGDSNHAAKLTEEQVVEIRELAAAGATTKFLAEMVGMHPNYVGLILRGLSWPEAGGPLRVA | 0.0889
73 | HMGSVDMVYGDHKINSEHMDLSFKNQTAVLYDKVNYKSSLSMLSADKILVNFLNKYTKIEMNDENNNILIQ | -0.128
74 | HMGSVNDNVQKLTSQIGETTETGDTITPEDVELYKKMVDPLSTMAQKLEAAEILKLKGIIGSNGIIV | -0.0476
75 | HMGSWEDALKNWVDSALASGQKGILEQAVPKFERIMIETALTHTAGRRRDASLLLGWGRNTLTRKIKELGI | 0.0465
